Assay results from paper PMC4534130.
Like-named read-outs stand apart in the source and are kept apart here.

Assays:
[1] = target: Human FcγRIIIa_V158 (human)
[2] = target: Human FcγRIIIa_V158 (human); remark: listed apart in the source

IgG1, di-sialylated variant (antibody) gave a relative ADCC activity (NK cell line expressing FcγRIIIa V158; target cells expressing a receptor of the EGFR family; relative to a reference material set to 100%) [1] of 115%.

With “IgG1, hyper-galactosylated variant (antibody)” the relative ADCC activity (NK cell line expressing FcγRIIIa V158; target cells expressing a receptor of the EGFR family; relative to a reference material set to 100%) [2] was 118%.

“IgG1, hypo-galactosylated variant (antibody)” was tested, and the relative ADCC activity (NK cell line expressing FcγRIIIa V158; target cells expressing a receptor of the EGFR family; relative to a reference material set to 100%) [2] was 66%.

For “IgG1, mono-sialylated variant (antibody)”, the relative ADCC activity (NK cell line expressing FcγRIIIa V158; target cells expressing a receptor of the EGFR family; relative to a reference material set to 100%) [1] was 104%.
